The values that follow come from patent publication US20200255499A1 (COUNCIL OF THE QUEENSLAND INSTITUTE OF MEDICAL RESEARCH, published 2020).

The target in assay [1] is T1, Epstein Barr Virus (EBV) glycoprotein gp350 (Epstein-Barr virus, UniProt P03200 1-860).
T1 construct: Viral antigen: immunogen, coated in the ELISAs, immobilised on the CM5 chip in SPR; also called EBV gp350; gp350 antigen
T1 sequence: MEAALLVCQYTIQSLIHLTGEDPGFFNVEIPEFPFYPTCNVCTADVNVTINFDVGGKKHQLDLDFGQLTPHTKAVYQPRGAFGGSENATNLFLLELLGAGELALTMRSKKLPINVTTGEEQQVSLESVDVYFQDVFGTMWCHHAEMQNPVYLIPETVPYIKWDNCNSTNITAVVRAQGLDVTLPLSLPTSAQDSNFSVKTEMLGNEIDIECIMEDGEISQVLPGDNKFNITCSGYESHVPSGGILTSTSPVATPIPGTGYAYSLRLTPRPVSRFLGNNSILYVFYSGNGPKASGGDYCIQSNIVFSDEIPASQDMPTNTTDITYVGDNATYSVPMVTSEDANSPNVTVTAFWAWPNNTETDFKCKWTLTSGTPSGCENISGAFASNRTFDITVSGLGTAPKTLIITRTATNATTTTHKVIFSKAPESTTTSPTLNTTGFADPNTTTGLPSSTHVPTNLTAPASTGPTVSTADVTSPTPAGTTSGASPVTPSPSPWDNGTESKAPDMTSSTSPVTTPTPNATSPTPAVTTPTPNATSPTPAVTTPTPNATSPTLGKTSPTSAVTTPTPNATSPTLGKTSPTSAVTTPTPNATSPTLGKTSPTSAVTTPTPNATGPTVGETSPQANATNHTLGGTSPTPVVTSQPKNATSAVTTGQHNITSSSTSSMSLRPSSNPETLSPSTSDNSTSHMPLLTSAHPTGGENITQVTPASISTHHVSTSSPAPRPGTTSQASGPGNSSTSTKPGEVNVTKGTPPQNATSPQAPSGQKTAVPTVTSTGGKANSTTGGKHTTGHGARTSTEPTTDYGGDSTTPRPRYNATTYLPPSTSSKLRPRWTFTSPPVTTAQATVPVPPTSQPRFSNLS
In words: SPR steady-state affinity plot, 1:1 Langmuir fit (FIG. 11), gp350 immobilised; given as 'affinity constant'; 'affinity constant' in M (FIG. 11).

In assay [2] the target is T1, Epstein Barr Virus (EBV) glycoprotein …. In words: SPR (Biacore T100), gp350 immobilised on CM5 chip, antibody as analyte, single cycle kinetics; single cycle kinetics (FIG. 10), 'KD value' in nM.
Assay [3] shares this target. In words: SPR (Biacore T100), gp350 immobilised on CM5 chip, antibody as analyte, single cycle kinetics. (SPR reads the build-up and loss of mass on a sensor chip optically.)
The target is the same in assay [4]. In words: SPR steady-state affinity plot, 1:1 Langmuir fit (FIG. 11), gp350 immobilised; given as 'affinity constant'.
Assay [5] has the same target. In words: monoclonal phage ELISA on gp350.
Assay [6] shares this target. Put plainly: SPR (Biacore T100), steady-state affinity plot, 1:1 Langmuir fit, gp350 immobilised on CM5 sensor chip, antibody as analyte.
The target is the same in assay [7]. Put plainly: SPR (Biacore T100), single cycle kinetics, gp350 immobilised on CM5 sensor chip, antibody as analyte.
The target is the same in assay [8]. Put plainly: SPR steady-state affinity plot, 1:1 Langmuir fit (FIG. 11), gp350 immobilised; printed as 'affinity value'; 'affinity value' in M (FIG. 11).
The target is the same in assay [9]. In words: SPR (Biacore T100), gp350 immobilised on CM5 chip, antibody as analyte, single cycle kinetics; single cycle kinetics (FIG. 10), 'dissociation value' in nM.
Assay [10] has the same target. Put plainly: SPR (Biacore T100), gp350 immobilised on CM5 chip, antibody as analyte, single cycle kinetics; single cycle kinetics (FIG. 10), dissociation constant in nM.

Positions count from the first letter of the chain named.

B1: Clone A11 recombinant human IgG1 monoclonal antibody (antibody, V domains shown)
VH: EMQLVQSGAEVKKPGASVKVSCKTSGYNFNHQGISWLRQAPGQGLEWMGWISGFNGKTNYAQKFQGRVTMTADRSTTTAYMELRSLRSDDTAVYYCASGGEQWLVQNFVHWGQGTLLTVSS
VL: ETVLTQEPSLTVSPGGTVTLTCASSTGAVTSGYYPNWFQQKPGQAPRALIYSTSNKHSWTPARFSGSLLGGKAALTLSGVQPEDEAEYYCLLYYGGAWVFGGGTKLTVLG
notes: also called Antibody A11
What is called Kd is the free concentration of one partner at which half of the binding sites on the other are occupied at equilibrium, for simple one-to-one binding. Consider B1, for which the equilibrium dissociation constant (Kd) in assay [1] worked out at 309 nM; in assay [2], 0.723 nM.

B2: Clone B8 recombinant human IgG1 monoclonal antibody (antibody, V domains shown)
VH: EVQLVESAGEVQKPGESLRISCKASGYTFSHYWIGWVRQLPGKGLEWMGIIYPDDSDSRYSPSFQGQVTMSVDKSINTAYLQWNSLKVSDTATYYCVRHWLKRGSNFGFGFDPWGQGTTLTVSS
VL: ESALTQPASVSGSPGQSITISCTGTSSDVGGYNYVSWYQQHPGKAPKLMIYDVSNRPSGVSNRFSGSKSGNTASLTISGLQAEDEADYYCSSYTSSSTLVFGGGTKLTVLG
notes: also called antibody B8
In the case of B2, the dissociation constant (Kd) in assay [3] was found to be 33.3 nM; in [4], 829 nM.

B3: Clone B8, original phage-displayed antibody fragment (other)
VH: B2 VH
VL: B2 VL
notes: VH and VL are as translated from the PCR products of the original phage clone; also called CloneB8 (phage clone)
For B3, in assay [5], the absorbance was > 1 absorbance.

B4: C10 (antibody, V domains shown)
VH: EVQLVQSGAEVKKPGASVKVSCKASGYTFNAYYIHWVRQAPGQGLDWMGWINPNSGGTNYAQNFKGRVTMTRDTSISTAYLELRSLTSDDTAVYFCATERGYTSSFRRDAFDKWGQGTMLTVSS
VL: EAVVTQPPSASGTPGQGVTISCSGSSSNIGSNFVYWYQQLPGTAPKLLIYRNNQRPSGVPDRFSGSKSATSASLAISGLRSEDEADYYCATWDDSLSGYVFGTGTKLTVLG
notes: Full IgG1 form of phage clone C10, expressed in Expi293F cells; It is not in the list MOLECULES; also called Clone C10 recombinant human IgG1 monoclonal antibody; CloneC10
As for B4, the equilibrium dissociation constant (Kd) in [6] is 663 nM; in assay [7], 11.4 nM.

B5: Clone B7, original phage-displayed antibody fragment (other)
VH: B4 VH with K19E
VL: ESVLTQPPSVSAAPGQKVTISCSGSSSNIGNNYVSWYQQLPGTAPKLLIYENNKRPSGIPDRFSGSKSGTSATLGITGLQTGDEAGYYCGTWDSSLSAVVFGGGTKLTVLG
notes: also called CloneB7 (phage clone)
Take B5: the absorbance in assay [5] was > 1 absorbance.

B6: Clone B7 recombinant human IgG1 monoclonal antibody (antibody, V domains shown)
VH: B4 VH with K19E
VL: B5 VL
notes: also called Antibody B7
For B6, the Kd in assay [8] turned out to be 768 nM; in assay [9] it was 4.07 nM.

B7: Clone E10, original phage-displayed antibody fragment (other)
VH: B4 VH with K19E, M119L
VL: ESVLTQPPSISAAPGQRVTIPCSGSSSDIGNHYVSWYQQLPGAAPKLLIYEDNKRPSGIPDRFSGSKSGTSASLGITGLQTGDEADYYCGTWDNSLRSGFFGGGTKVTVLG
notes: also called CloneE10 (phage clone)
On to B7, for which the absorbance in assay [5] is > 1 absorbance.

B8: Clone E10 recombinant human IgG1 monoclonal antibody (antibody, V domains shown)
VH: B4 VH with K19E, M119L
VL: B7 VL
With B8, the Kd was 664 nM in assay [1] and 2.23 nM in assay [10].

B9: Clone D7, original phage-displayed antibody fragment (other)
VH: B4 VH with K19E
VL: ESVLTQPPSVSAAPGQKVTMSCSGSTSNIGSNSVSWYQHLPGTAPKLLLFDNAKRPSGIPDRFSGSKSGTSATLGITGLQTGDEADYYCGTWDSGLSVMVFGGGTKLTVLG
notes: also called CloneD7 (phage clone)
Turning to B9, the absorbance in assay [5] was > 1 absorbance.

B10: Clone C10, original phage-displayed antibody fragment (other)
VH: B4 VH
VL: B4 VL
notes: also called CloneC10 (phage clone)
Consider B10, for which the absorbance in assay [5] was > 1 absorbance.

B11: Clone D7 recombinant human IgG1 monoclonal antibody (antibody, V domains shown)
VH: B4 VH with K19E
VL: B9 VL
As to B11, the Kd in assay [1] worked out at 465 nM; in [10], 3.86 nM.

B12: Clone A11, original phage-displayed antibody fragment (other)
VH: MQLVQSGAEVKKPGASVKVSCKTSGYNFNHQGISWLRQAPGQGLEWMGWISGFNGKTNYAQKFQGRVTMTADRSTTTAYMELRSLRSDDTAVYYCASGGEQWLVQNFVHWGQGTLLTVSS
VL: VLTQEPSLTVSPGGTVTLTCASSTGAVTSGYYPNWFQQKPGQAPRALIYSTSNKHSWTPARFSGSLLGGKAALTLSGVQPEDEAEYYCLLYYGGAWVFGGGTKLTVL
notes: The printed VH and VL begin one or two residues later than those of the other clones, so they may be cut short at the N-terminus; also called CloneA11 (phage clone)
Turning to B12, in assay [5], the absorbance was > 1 absorbance.
